# In patent publication US20060073517A1:
# Biological target: histone H3 methylated on lysine 9 and phosphorylated on serine 10
# Assay: binding graph, method not stated (FIG. 2)
substance,measurement,value
HP1 (heterochromatin protein 1),fold drop in binding affinity (against H3 methylated on Lys 9 without phospho-Ser 10),100 fold
